Series [1] is described as follows: confocal colocalisation with LAMP-1/CD63 (Pearson), cell lines. The note with it: control: untreated cells.
A short description of series [2]: confocal colocalisation (Pearson), primary and super-charged NK cells. The conditions noted are these: glycan changed form; control: untreated cells.
Series [3] can be described thus: western blot of cell media. The note with it: glycan lost; control: untreated cells. On the technique in general: A western blot detects proteins with antibodies after separation by electrophoresis.

B1: cystatin F: kifunensine (10 µM, 6 h); U-937, TALL-104, NK-92 (protein)
parent chain: MRAAGTLLAFCCLVLSTTGGPSPDTCSQDLNSRVKPGFPKTIKTNDPGVLQAARYSVEKFNNCTNDMFLFKESRITRALVQIVKGLKYMLEVEIGRTTCKKNQHLRLDDCDFQTNHTLKQTLSCYSEVWVVPWLQHFEVPVLRCH
As for B1, the localisation_or_trafficking result in series [1] (glycan changed form) is “increases”.

B2: cystatin F: tunicamycin (1 µg/mL); U-937, NK-92 (protein)
parent chain: B1 parent chain
On to B2, for which, in series [1] (glycan lost), the localisation_or_trafficking entry is recorded as “decreases”.

B3: cystatin F: kifunensine (10 µM, 6 h); pNK, sNK (protein)
parent chain: B1 parent chain
Regarding B3, the localisation_or_trafficking result in series [2] is given as “increases”.

B4: cystatin F: tunicamycin (protein)
parent chain: B1 parent chain
Turning to B4, the expression_or_secretion entry in series [3] was “changes”.

Values taken from article PMC10719177.
